In the assay the target is T1, recombinant full-length human ITGAL-ITGB2 (human, UniProt P20701 26-1170; P05107 23-769).
T1 construct: integrin alpha L (ITGAL), human, full-length; integrin beta 2 (ITGB2), human, full-length; also called full-length ITGAL-ITGB2; LFA-1; source: bought: Origene
Nature of the assay: far-Western; GST-SHARPIN (WT, fragments or point mutants) with recombinant full-length ITGAL-ITGB2 or recombinant RNF31; which partner was on the membrane is not told; performed as described in ref. 5. To be noted: both partners purified.

T1 sequence (P20701 26-1170, chain 1 of 2): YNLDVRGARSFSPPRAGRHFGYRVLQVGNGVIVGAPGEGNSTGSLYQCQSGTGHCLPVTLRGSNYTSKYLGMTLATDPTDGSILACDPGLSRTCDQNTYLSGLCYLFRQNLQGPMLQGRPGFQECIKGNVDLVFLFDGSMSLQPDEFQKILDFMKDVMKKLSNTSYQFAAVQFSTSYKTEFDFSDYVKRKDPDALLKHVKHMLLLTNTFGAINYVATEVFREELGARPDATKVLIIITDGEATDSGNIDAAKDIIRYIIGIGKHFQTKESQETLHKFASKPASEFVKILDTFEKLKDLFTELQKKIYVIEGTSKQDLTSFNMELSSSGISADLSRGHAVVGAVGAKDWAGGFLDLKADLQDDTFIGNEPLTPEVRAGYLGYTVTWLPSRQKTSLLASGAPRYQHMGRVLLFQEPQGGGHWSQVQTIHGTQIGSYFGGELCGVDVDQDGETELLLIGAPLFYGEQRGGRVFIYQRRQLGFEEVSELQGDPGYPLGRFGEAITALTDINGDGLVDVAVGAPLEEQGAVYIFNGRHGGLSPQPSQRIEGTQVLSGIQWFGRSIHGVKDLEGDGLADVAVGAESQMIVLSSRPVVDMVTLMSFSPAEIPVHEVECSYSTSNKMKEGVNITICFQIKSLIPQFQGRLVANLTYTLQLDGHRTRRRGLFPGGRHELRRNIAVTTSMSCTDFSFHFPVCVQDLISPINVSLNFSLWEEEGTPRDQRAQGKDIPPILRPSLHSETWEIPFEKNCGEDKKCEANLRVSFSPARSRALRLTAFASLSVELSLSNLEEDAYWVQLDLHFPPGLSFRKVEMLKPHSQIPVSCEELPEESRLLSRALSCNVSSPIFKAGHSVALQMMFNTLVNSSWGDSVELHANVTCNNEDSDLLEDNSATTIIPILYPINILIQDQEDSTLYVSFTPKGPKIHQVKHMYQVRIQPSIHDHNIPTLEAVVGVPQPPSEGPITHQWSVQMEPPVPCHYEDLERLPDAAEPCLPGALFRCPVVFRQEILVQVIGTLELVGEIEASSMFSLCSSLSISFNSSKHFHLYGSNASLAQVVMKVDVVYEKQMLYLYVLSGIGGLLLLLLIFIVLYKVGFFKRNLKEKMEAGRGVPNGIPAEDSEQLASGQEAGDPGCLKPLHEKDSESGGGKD
T1 sequence (P05107 23-769, chain 2 of 2): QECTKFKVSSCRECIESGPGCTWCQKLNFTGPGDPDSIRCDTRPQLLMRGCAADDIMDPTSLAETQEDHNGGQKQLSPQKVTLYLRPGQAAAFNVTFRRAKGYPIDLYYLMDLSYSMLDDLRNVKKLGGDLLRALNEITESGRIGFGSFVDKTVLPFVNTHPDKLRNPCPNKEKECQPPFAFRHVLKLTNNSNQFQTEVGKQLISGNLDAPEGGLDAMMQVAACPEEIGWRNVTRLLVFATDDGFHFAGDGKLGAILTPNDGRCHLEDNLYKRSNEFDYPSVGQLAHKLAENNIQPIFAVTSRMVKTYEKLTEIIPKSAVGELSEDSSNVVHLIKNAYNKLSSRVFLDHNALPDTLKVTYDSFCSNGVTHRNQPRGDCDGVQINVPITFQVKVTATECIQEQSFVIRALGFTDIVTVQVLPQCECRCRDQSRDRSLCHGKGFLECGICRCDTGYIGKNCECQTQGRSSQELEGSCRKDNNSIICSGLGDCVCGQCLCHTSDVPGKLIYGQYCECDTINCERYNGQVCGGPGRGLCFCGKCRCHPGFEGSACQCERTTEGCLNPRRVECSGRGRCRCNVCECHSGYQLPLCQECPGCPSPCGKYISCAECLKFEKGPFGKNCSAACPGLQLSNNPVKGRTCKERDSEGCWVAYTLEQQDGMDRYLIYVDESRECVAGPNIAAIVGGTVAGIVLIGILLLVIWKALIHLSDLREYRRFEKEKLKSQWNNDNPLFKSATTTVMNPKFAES

B1: GST-SHARPIN^WT (natural protein, UniProt Q9H0F6 1-387, looked up)
chain: MAPPAGGAAAAASDLGSAAVLLAVHAAVRPLGAGPDAEAQLRRLQLSADPERPGRFRLELLGAGPGAVNLEWPLESVSYTIRGPTQHELQPPPGGPGTLSLHFLNPQEAQRWAVLVRGATVEGQNGSKSNSPPALGPEACPVSLPSPPEASTLKGPPPEADLPRSPGNLTEREELAGSLARAIAGGDEKGAAQVAAVLAQHRVALSVQLQEACFPPGPIRLQVTLEDAASAASAASSAHVALQVHPHCTVAALQEQVFSELGFPPAVQRWVIGRCLCVPERSLASYGVRQDGDPAFLYLLSAPREAPATGPSPQHPQKMDGELGRLFPPSLGLPPGPQPAASSLPSPLQPSWSCPSCTFINAPDRPGCEMCSTQRPCTWDPLAAAST
notes: also called GST-SHARPIN (full-length); source: E. coli strain Rosetta BL21DE3, purified
B1: the binding result is on record as “binds”.

B2: GST-SHARPIN^L276A (natural protein, UniProt Q9H0F6 1-387, looked up)
chain: MAPPAGGAAAAASDLGSAAVLLAVHAAVRPLGAGPDAEAQLRRLQLSADPERPGRFRLELLGAGPGAVNLEWPLESVSYTIRGPTQHELQPPPGGPGTLSLHFLNPQEAQRWAVLVRGATVEGQNGSKSNSPPALGPEACPVSLPSPPEASTLKGPPPEADLPRSPGNLTEREELAGSLARAIAGGDEKGAAQVAAVLAQHRVALSVQLQEACFPPGPIRLQVTLEDAASAASAASSAHVALQVHPHCTVAALQEQVFSELGFPPAVQRWVIGRCACVPERSLASYGVRQDGDPAFLYLLSAPREAPATGPSPQHPQKMDGELGRLFPPSLGLPPGPQPAASSLPSPLQPSWSCPSCTFINAPDRPGCEMCSTQRPCTWDPLAAAST
notes: source: E. coli strain Rosetta BL21DE3, purified
Consider B2, for which the binding result is “binds”.

The values are drawn from publication PMC4658161, “Mutually Exclusive Roles of SHARPIN in Integrin Inactivation and NF-κB Signaling” (PLoS ONE, 2015).
